Laboratory results: IntAct's records for PubMed 25910212

B1: Keratin, type II cytoskeletal 6A (Homo sapiens), P02538 (parent)
chain: MASTSTTIRSHSSSRRGFSANSARLPGVSRSGFSSVSVSRSRGSGGLGGACGGAGFGSRSLYGLGGSKRISIGGGSCAISGGYGSRAGGSYGFGGAGSGFGFGGGAGIGFGLGGGAGLAGGFGGPGFPVCPPGGIQEVTVNQSLLTPLNLQIDPTIQRVRAEEREQIKTLNNKFASFIDKVRFLEQQNKVLETKWTLLQEQGTKTVRQNLEPLFEQYINNLRRQLDSIVGERGRLDSELRGMQDLVEDFKNKYEDEINKRTAAENEFVTLKKDVDAAYMNKVELQAKADTLTDEINFLRALYDAELSQMQTHISDTSVVLSMDNNRNLDLDSIIAEVKAQYEEIAQRSRAEAESWYQTKYEELQVTAGRHGDDLRNTKQEIAEINRMIQRLRSEIDHVKKQCANLQAAIADAEQRGEMALKDAKNKLEGLEDALQKAKQDLARLLKEYQELMNVKLALDVEIATYRKLLEGEECRLNGEGVGQVNISVVQSTVSSGYGGASGVGSGLGLGGGSSYSYGSGLGVGGGFSSSSGRAIGGGLSSVGGGSSTIKYTTTSSSSRKSYKH
partner: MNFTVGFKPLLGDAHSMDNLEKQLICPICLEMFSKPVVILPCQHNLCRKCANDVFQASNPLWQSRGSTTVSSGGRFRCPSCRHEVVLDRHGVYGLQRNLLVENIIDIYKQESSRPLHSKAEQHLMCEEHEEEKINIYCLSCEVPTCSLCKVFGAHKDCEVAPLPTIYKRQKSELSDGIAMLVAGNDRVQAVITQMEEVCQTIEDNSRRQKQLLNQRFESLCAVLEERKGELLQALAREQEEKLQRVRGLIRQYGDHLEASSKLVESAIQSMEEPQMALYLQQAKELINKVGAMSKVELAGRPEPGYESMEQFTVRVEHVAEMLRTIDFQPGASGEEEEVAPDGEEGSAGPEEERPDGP
B2: Chorion-specific transcription factor GCMb (Homo sapiens), O75603 (parent)
chain: MPAAAVQEAVGVCSYGMQLSWDINDPQMPQELALFDQFREWPDGYVRFIYSSDEKKAQRHLSGWAMRNTNNHNGHILKKSCLGVVVCTQACTLPDGSRLQLRPAICDKARLKQQKKACPNCHSALELIPCRGHSGYPVTNFWRLDGNAIFFQAKGVHDHPRPESKSETEARRSAIKRQMASFYQPQKKRIRESEAEENQDSSGHFSNIPPLENPEDFDIVTETSFPIPGQPCPSFPKSDVYKATCDLATFQGDKMPPFQKYSSPRIYLPRPPCSYELANPGYTNSSPYPTLYKDSTSIPNDTDWVHLNTLQCNVNSYSSYERSFDFTNKQHGWKPALGKPSLVERTNHGQFQAMATRPYYNPELPCRYLTTPPPGAPALQTVITTTTKVSYQAYQPPAMKYSDSVREVKSLSSCNYAPEDTGMSVYPEPWGPPVTVTRAASPSGPPPMKIAGDCRAIRPTVAIPHEPVSSRTDEAETWDVCLSGLGSAVSYSDRVGPFFTYNNEDF
partner: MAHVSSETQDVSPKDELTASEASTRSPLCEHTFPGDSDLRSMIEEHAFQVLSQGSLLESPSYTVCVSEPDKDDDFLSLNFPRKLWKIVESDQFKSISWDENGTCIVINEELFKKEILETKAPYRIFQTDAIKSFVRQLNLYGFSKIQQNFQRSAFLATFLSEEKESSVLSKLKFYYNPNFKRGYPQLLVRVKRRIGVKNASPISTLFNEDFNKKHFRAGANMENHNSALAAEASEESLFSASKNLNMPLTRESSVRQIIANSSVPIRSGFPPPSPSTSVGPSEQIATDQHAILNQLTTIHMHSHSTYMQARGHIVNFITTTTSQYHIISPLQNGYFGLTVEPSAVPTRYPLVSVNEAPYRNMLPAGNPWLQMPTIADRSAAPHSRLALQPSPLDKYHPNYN
B3: Pigment epithelium-derived factor (Homo sapiens), P36955 (parent)
chain: MQALVLLLCIGALLGHSSCQNPASPPEEGSPDPDSTGALVEEEDPFFKVPVNKLAAAVSNFGYDLYRVRSSTSPTTNVLLSPLSVATALSALSLGAEQRTESIIHRALYYDLISSPDIHGTYKELLDTVTAPQKNLKSASRIVFEKKLRIKSSFVAPLEKSYGTRPRVLTGNPRLDLQEINNWVQAQMKGKLARSTKEIPDEISILLLGVAHFKGQWVTKFDSRKTSLEDFYLDEERTVRVPMMSDPKAVLRYGLDSDLSCKIAQLPLTGSMSIIFFLPLKVTQNLTLIEESLTSEFIHDIDRELKTVQAVLTVPKLKLSYEGEVTKSLQEMKLQSLFDSPDFSKITGKPIKLTQVEHRAGFEWNEDGAGTTPSPGLQPAHLTFPLDYHLNQPFIFVLRDTDTGALLFIGKILDPRGP
partner: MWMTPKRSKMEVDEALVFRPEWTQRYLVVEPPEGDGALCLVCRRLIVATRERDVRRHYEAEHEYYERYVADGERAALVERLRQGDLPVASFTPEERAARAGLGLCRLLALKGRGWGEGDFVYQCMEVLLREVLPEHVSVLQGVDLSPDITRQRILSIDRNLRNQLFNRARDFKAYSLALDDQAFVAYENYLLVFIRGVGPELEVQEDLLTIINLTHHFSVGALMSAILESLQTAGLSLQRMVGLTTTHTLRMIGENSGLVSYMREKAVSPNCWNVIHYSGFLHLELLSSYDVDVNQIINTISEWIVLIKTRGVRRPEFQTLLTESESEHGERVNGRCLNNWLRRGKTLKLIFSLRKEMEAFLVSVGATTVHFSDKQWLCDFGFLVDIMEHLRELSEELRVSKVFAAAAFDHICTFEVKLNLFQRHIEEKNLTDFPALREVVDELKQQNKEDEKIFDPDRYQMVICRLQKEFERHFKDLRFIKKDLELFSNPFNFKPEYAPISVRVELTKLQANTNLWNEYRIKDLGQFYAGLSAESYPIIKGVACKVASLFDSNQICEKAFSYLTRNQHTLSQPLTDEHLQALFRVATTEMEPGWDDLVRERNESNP
B4: Estrogen receptor beta (Homo sapiens), Q92731-3 (parent)
chain: MDIKNSPSSLNSPSSYNCSQSILPLEHGSIYIPSSYVDSHHEYPAMTFYSPAVMNYSIPSNVTNLEGGPGRQTTSPNVLWPTPGHLSPLVVHRQLSHLYAEPQKSPWCEARSLEHTLPVNRETLKRKVSGNRCASPVTGPGSKRDAHFCAVCSDYASGYHYGVWSCEGCKAFFKRSIQGHNDYICPATNQCTIDKNRRKSCQACRLRKCYEVGMVKCGSRRERCGYRLVRRQRSADEQLHCAGKAKRSGGHAPRVRELLLDALSPEQLVLTLLEAEPPHVLISRPSAPFTEASMMMSLTKLADKELVHMISWAKKIPGMRGNA
partner: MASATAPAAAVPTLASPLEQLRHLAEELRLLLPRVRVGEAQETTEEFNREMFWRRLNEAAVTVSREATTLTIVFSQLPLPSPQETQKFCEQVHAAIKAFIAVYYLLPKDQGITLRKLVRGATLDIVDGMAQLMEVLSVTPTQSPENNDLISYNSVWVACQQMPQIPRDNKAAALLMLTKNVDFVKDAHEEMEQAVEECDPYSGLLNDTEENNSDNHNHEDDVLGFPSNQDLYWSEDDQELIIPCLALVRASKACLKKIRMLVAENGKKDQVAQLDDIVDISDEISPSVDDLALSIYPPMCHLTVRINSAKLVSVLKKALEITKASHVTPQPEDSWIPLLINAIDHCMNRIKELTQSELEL
B5: U4/U6 small nuclear ribonucleoprotein Prp31 (Homo sapiens), Q8WWY3 (parent)
chain: MSLADELLADLEEAAEEEEGGSYGEEEEEPAIEDVQEETQLDLSGDSVKTIAKLWDSKMFAEIMMKIEEYISKQAKASEVMGPVEAAPEYRVIVDANNLTVEIENELNIIHKFIRDKYSKRFPELESLVPNALDYIRTVKELGNSLDKCKNNENLQQILTNATIMVVSVTASTTQGQQLSEEELERLEEACDMALELNASKHRIYEYVESRMSFIAPNLSIIIGASTAAKIMGVAGGLTNLSKMPACNIMLLGAQRKTLSGFSSTSVLPHTGYIYHSDIVQSLPPDLRRKAARLVAAKCTLAARVDSFHESTEGKVGYELKDEIERKFDKWQEPPPVKQVKPLPAPLDGQRKKRGGRRYRKMKERLGLTEIRKQANRMSFGEIEEDAYQEDLGFSLGHLGKSGSGRVRQTQVNEATKARISKTLQRTLQKQSVVYGGKSTIRDRSSGTASSVAFTPLQGLEIVNPQAAEKKVAEANQKYFSSMAEFLKVKGEKSGLMST
partner: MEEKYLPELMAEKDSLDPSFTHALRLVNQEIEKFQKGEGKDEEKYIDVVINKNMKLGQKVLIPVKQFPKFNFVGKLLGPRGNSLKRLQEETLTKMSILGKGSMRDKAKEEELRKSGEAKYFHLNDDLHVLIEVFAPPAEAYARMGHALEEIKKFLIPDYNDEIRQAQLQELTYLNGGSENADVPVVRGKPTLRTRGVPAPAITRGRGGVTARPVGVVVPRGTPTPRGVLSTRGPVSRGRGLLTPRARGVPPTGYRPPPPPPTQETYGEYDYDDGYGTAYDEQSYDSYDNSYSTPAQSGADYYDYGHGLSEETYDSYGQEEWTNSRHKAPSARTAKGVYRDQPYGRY

Variants of: B1
Settings: with tri54_human TRIM54, Q9BYV2

Variant	effect of a mutation on the interaction
F249L	with no effect
N21S	with no effect

Further lines, results first:

effect of a mutation on the interaction	Variant
with no effect	I462S
with no effect	N171K
disrupting interaction strength	A463P

Variants of: B2
Settings: with hsfy1_human HSFY1, Q96LI6

effect of a mutation on the interaction	Variant
disrupting interaction strength	G63S
disrupting interaction strength	R47L
with no effect	G203S

Variants of: B3
Settings: with epmip_human EPM2AIP1, Q7L775

effect of a mutation on the interaction	Variant
with no effect	T72M

Variants of: B4
Settings: with ccdb1_human CCNDBP1, O95273

effect of a mutation on the interaction	Variant
causing an interaction	F289L

Variants of: B5
Settings: with khdr3_human KHDRBS3, O75525

effect of a mutation on the interaction	Variant
with no effect	L107V
